The values below come from article PMC2172161 (The Journal of Cell Biology, 2004).

The chains are these.
B1: Cdc12-His6 (natural protein)
chain: MSAATATAAPVPPPVGISNLPNQRYKIVNEEGGTFTVMLCGESGLGKTTFINTLFQTVLKRADGQQHRQEPIRKTVEIDITRALLEEKHFELRVNVIDTPGFGDNVNNNKAWQPLVDFIDDQHDSYMRQEQQPYRTKKFDLRVHAVLYFIRPTGHGLKPIDIETMKRLSTRANLIPVIAKADTLTAQELQQFKSRIRQVIEAQEIRIFTPPLDADSKEDAKSGSNPDSAAVEHARQLIEAMPFAIVGSEKKFDNGQGTQVVARKYPWGLVEIENDSHCDFRKLRALLLRTYLLDLISTTQEMHYETYRRLRLEGHENTGEGNEDFTLPAIAPARKLSHNPRYKEEENALKKYFTDQVKAEEQRFRQWEQNIVNERIRLNGDLEEIQGKVKKLEEQVKSLQVKKSHLK
B3: Cdc12(T48N)-His6 (natural protein)
chain: MSAATATAAPVPPPVGISNLPNQRYKIVNEEGGTFTVMLCGESGLGKNTFINTLFQTVLKRADGQQHRQEPIRKTVEIDITRALLEEKHFELRVNVIDTPGFGDNVNNNKAWQPLVDFIDDQHDSYMRQEQQPYRTKKFDLRVHAVLYFIRPTGHGLKPIDIETMKRLSTRANLIPVIAKADTLTAQELQQFKSRIRQVIEAQEIRIFTPPLDADSKEDAKSGSNPDSAAVEHARQLIEAMPFAIVGSEKKFDNGQGTQVVARKYPWGLVEIENDSHCDFRKLRALLLRTYLLDLISTTQEMHYETYRRLRLEGHENTGEGNEDFTLPAIAPARKLSHNPRYKEEENALKKYFTDQVKAEEQRFRQWEQNIVNERIRLNGDLEEIQGKVKKLEEQVKSLQVKKSHLK

In test [1] the target is T1, Cdc12ΔC-His6 (Cdc12(Δ339–407)-His6) (Saccharomyces cerevisiae, UniProt P32468).
T1 sequence (P32468 1-338): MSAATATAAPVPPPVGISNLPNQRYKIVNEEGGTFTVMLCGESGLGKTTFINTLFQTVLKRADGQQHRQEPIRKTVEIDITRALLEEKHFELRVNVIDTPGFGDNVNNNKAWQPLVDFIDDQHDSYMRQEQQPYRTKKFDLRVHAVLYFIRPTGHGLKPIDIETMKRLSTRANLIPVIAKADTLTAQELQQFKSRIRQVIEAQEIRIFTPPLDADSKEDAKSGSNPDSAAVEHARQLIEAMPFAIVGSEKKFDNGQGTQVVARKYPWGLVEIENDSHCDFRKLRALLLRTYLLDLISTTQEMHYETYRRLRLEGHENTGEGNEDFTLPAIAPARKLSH
Kind of test: filter binding of radiolabelled GTPγS. The note with it: labelled compound.

Test [2] deals with T2, Cdc12-His6 (Saccharomyces cerevisiae, UniProt P32468).
T2 sequence (P32468 1-407): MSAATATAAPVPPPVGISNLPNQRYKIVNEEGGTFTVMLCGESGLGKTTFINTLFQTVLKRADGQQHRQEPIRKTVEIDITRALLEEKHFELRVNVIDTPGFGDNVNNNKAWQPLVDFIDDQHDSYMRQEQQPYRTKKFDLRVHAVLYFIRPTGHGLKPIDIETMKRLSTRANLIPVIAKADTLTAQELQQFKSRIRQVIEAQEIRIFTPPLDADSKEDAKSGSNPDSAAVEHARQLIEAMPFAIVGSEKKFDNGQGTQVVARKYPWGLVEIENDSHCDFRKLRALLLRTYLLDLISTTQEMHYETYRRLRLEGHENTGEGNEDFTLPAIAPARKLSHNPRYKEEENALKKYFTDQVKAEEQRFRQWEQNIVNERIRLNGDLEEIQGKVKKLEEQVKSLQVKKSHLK
Description: filter binding of radiolabelled GTPγS. The following applies: labelled compound.

The next test deals with T3, Cdc10 (Saccharomyces cerevisiae, UniProt P25342).
T3 sequence (P25342 1-322): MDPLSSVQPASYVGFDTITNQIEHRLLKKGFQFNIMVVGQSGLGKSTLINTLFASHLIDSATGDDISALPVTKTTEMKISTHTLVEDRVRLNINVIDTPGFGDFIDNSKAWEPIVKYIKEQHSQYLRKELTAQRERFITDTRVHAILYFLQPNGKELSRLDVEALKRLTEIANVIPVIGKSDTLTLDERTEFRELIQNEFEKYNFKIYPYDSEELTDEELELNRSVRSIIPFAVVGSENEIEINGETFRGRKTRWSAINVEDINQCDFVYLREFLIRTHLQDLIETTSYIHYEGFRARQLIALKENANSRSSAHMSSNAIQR
Description: GTPase, phosphate release from γ[…]GTP. Type of test: biochemical. The note with it: labelled compound.

Test [3] concerns the target T2, Cdc12-His6. Description: GTPase, phosphate release from γ[…]GTP. It counts as biochemical. The note with it: labelled compound.
Test [4] deals with His6Cdc12–Cdc3–Cdc10–Cdc11 complex (Saccharomyces cerevisiae, UniProt P25342+P32468). Description: binding of α[…]GTP to complex on Ni2+-NTA beads. The following applies: labelled compound.
In test [5] the target is T4, GST-Cdc11 (S. cerevisiae, UniProt P32458 1-415).
T4 sequence: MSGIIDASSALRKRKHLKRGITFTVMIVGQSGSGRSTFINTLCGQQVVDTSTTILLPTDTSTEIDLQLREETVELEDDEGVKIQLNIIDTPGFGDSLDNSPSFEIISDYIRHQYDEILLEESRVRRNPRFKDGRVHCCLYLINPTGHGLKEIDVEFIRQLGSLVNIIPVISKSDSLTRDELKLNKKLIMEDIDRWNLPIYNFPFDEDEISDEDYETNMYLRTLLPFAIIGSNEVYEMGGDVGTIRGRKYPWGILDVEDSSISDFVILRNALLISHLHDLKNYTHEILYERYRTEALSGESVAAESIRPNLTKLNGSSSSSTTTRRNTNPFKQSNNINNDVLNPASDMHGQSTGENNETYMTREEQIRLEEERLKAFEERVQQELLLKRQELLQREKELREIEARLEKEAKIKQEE
Description: pull-down.

Test [6] addresses T5, GST-Cdc3 (S. cerevisiae, UniProt P32457 1-520).
T5 sequence: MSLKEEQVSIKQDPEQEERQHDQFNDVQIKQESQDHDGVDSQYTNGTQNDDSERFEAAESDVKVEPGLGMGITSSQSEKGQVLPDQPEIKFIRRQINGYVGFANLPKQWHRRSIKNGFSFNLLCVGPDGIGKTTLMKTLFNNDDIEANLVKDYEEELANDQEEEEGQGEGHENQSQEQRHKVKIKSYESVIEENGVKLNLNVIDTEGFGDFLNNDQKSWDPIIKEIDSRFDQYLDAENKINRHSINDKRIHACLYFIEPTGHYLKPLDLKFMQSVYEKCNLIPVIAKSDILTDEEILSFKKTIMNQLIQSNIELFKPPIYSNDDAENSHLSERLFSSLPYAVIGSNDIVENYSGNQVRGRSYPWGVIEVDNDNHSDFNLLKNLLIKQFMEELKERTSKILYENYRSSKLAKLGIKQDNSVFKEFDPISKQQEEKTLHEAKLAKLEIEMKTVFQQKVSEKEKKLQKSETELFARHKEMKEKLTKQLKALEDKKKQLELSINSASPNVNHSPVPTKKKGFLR
Kind of test: pull-down.

In another test the target is T6, GST-Cdc12 (S. cerevisiae, UniProt P32468 1-407).
T6 sequence: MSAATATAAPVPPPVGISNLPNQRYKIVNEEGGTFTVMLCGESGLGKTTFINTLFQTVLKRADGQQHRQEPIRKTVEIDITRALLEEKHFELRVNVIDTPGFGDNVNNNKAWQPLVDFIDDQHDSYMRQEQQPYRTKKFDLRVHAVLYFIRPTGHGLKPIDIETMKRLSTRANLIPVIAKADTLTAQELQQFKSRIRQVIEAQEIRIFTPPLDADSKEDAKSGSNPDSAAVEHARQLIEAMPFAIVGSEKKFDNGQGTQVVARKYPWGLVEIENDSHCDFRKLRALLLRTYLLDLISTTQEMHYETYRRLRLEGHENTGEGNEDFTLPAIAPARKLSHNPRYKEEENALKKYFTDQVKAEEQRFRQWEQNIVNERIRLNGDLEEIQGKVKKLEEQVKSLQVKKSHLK
Description: pull-down.

Another test addresses T7, GST-HSL1(833-1518) (S. cerevisiae, UniProt P34244 833-1518).
T7 sequence: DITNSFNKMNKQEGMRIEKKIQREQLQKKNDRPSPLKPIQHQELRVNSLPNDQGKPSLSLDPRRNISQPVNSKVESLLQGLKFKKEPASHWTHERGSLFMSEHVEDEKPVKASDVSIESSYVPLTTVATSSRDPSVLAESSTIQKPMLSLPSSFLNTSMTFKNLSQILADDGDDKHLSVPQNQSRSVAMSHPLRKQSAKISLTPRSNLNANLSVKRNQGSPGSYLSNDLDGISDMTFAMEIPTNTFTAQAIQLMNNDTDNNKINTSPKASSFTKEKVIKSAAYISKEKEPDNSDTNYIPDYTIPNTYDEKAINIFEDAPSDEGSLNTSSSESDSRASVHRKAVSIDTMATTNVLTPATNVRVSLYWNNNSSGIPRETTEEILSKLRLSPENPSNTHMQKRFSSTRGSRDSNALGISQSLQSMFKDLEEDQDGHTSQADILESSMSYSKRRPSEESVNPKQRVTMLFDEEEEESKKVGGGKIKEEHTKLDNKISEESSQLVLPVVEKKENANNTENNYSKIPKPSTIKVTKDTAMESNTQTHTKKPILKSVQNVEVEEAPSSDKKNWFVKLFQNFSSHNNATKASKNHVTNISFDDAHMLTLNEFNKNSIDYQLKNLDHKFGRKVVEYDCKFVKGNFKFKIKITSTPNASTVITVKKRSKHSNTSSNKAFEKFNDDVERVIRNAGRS
Kind of test: pull-down.

Test [7] concerns the target B1. Description: pull-down.
The test “Cdc12(T48N)-His6” deals with B3. Kind of test: pull-down.
Test [8] addresses T4, GST-Cdc11. Description: pull-down. This is another data set of the same source.
Test [9] concerns the target T5, GST-Cdc3. Kind of test: pull-down. The source holds these as a separate data set.

Like-named read-outs stand apart in the source and are kept apart here.

Regarding `Nc1nc2c(ncn2[C@@H]2O[C@H](COP(=O)(O)OP(=O)(O)OP(O)(O)=S)[C@@H](O)[C@H]2O)c(=O)[nH]1` [GTPγS], the “filter binding of radiolabelled GTPγS” value in test [1] was “Both full-length Cdc12 and Cdc12ΔC formed stable complexes with GTPγS over time”; at Cdc12-His6 [2], “Both full-length Cdc12 and Cdc12ΔC formed stable complexes with GTPγS over time”.
For `Nc1nc2c(ncn2[C@@H]2O[C@H](COP(=O)(O)OP(=O)(O)OP(=O)(O)O)[C@@H](O)[C@H]2O)c(=O)[nH]1` [GTP], the “GTPase, phosphate release from γ[32P]GTP” value at Cdc10 is “Only Cdc10 and Cdc12 displayed detectable GTPase activity above the background control”; at Cdc12-His6 [3], “Only Cdc10 and Cdc12 displayed detectable GTPase activity above the background control”. Also, in [4], the “binding of α[32P]GTP to complex on Ni2+-NTA beads” value is given as “GTP binding to the His6Cdc12–Cdc3–Cdc10–Cdc11 complex”.
As to B1, the binding result in the test with GST-Cdc11 [5], in the test with GST-Cdc3 [6], in the test with GST-Cdc12 and in the test with GST-HSL1(833-1518) was “binds” each time.

B2: GST-Cdc10 (natural protein)
chain: MDPLSSVQPASYVGFDTITNQIEHRLLKKGFQFNIMVVGQSGLGKSTLINTLFASHLIDSATGDDISALPVTKTTEMKISTHTLVEDRVRLNINVIDTPGFGDFIDNSKAWEPIVKYIKEQHSQYLRKELTAQRERFITDTRVHAILYFLQPNGKELSRLDVEALKRLTEIANVIPVIGKSDTLTLDERTEFRELIQNEFEKYNFKIYPYDSEELTDEELELNRSVRSIIPFAVVGSENEIEINGETFRGRKTRWSAINVEDINQCDFVYLREFLIRTHLQDLIETTSYIHYEGFRARQLIALKENANSRSSAHMSSNAIQR
For B2, the binding result with Cdc12-His6 [7] and in the test with Cdc12(T48N)-His6 was “binds” each time.
B3: the binding result in the test with GST-Cdc12, with GST-HSL1(833-1518), with GST-Cdc11 [8] and in the test with GST-Cdc3 [9] was “binds” throughout.
